B1: library; numbered along this chain (parent)
chain: MEVVDPQQLGMFTEGELMSVGMDTFIHRIDSTEVIYQPRRKRAKLIGKYLMGDLLGEGSYGKVKEVLDSETLCRRAVKILKKKKLRRIPNGEANVKKEIQLLRRLRHKNVIQLVDVLYNEEKQKMYMVMEYCVCGMQEMLDSVPEKRFPVCQAHGYFCQLIDGLEYLHSQGIVHKDIKPGNLLLTTGGTLKISDLGVAEALHPFAADDTCRTSQGSPAFQPPEIANGLDTFSGFKVDIWSAGVTLYNITTGLYPFEGDNIYKLFENIGKGSYAIPGDCGPPLSDLLKGMLEYEPAKRFSIRQIRQHSWFRKKHPPAEAPVPIPPSPDTKDRWRSMTVVPYLEDLHGADEDEDLFDIEDDIIYTQDFTVPGQVPEEEASHNGQRRGLPKAVCMNGTEAAQLSTKSRAEGRAPNPARKACSASSKIRRLSACKQQ

Variants of: B1
Assay: STK11 functional score (HeLa growth suppression), rescaled enrichment; synonymous median = 1, nonsense median = 0 (normalised score)
Conditions: with HeLa; variant type: missense
Procedure, shortened: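 In HeLa, Bxb1 integrated POPCode codon-randomised libraries of codon-optimised STK11 at an AAVS1 landing pad; three regions were each transfected three times. Integrants, marked as BFP-negative and mCherry-positive, were FACS-sorted 4–5 days after electroporation and expanded for about two weeks before tiled gDNA amplicons were sequenced on NextSeq (~2 million reads per tile). Each functional score is a post/pre-selection log ratio corrected to wild type, rescaled to the synonymous and nonsense medians, and merged across codons and replicate transfections, with error estimated by bootstrapping.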

STK11 functional score: each site, then its substitutions
A347: M 1.54, L 1.46, G 1.12, I 1.52, S 1.42, F 1.37, Y 1.34, P 1.21, V 1.23, T 1.33, R 1.54, H 0.00438, W 1.59
V337: N 1.54, R 0.662, D 1.2, K 1.53, G 1.13, T 1.61, Y 0.9, I 1.48, P 1.58, W 0.54, A 1.24, L 0.924, S 0.723, C 1.15, F 0.545
D343: V 1.21, G 1.41, F 1.32, Y 1.29, S 1.35, R 1.11, M 1.57, Q 0.992, T 1.53, A 1.47, P 1.33, W 1.55, H 0.726, N 1.02, C 1.44, I 1.57, E 1.45, L 0.93
P339: V 0.729, R 1.16, G 0.73, Y 1.21, S 1.42, W 1.6, C 1.59, N 0.366, A 1, E 0.55, I 1.52, M 1.62, Q 1.52, D 1.55, L 0.979
I356: F 1.15, R 1.19, A 1.5, W 1.66, N 1.45, E 1.62, T 1.58, S 0.889, Y 1.12, D 1.27, V 1.46, P 1.6, G 1.45, M 1.21, H 1.51, L 1.15, Q 1.58
H345: L 1.2, F 1.41, R 1.58, T 1.57, A 1.56, S 1.18, D 1.27, Y 1.12, V 1.22, I 1.44, W 1.56, M 1.54, C 1.2, G 1.49, P 1.29
Y340: V 1.6, N 1.03, I 0.334, L 1.59, T 1.58, C 1.63, S 1.3, F 1.04, A 1.56, K 1.6, D 0.511
T336: R 1.54, N 0.774, K 1.54, V 1.49, W 1.64, S 1, Y 1.17, P 1.18, M 0.732, L 1.39
F354: N 1.6, R 1.53, I 1.32, L 1.12, K 1.57, M 1.51, C 0.742, E 1.45, Q 1.61, A 1.54, T 0.37, H 1.34, V 1.3, G 1.09, Y 1.31, W 0.138, S 1.34, P 1.42
L344: E 1.28, Y 0.904, W 1.54, H 1.14, R 1.46, C 1.12, V 1.42, A 1.51, I 1.13, G 0.8, D 1.46, S 1.43, T 1.56, K 1.59, F 0.831
D355: H 1.11, S 1.48, A 0.938, E 1.02, R 1.43, P 1.53, L 1.58, G 1.63, V 1.14, C 1.31, W 1.57, I 1.18, Q 1.28
E342: R 1.54, G 1, A 1.11, V 1.46, T 1.58, N 1.4, W 1.19

Reference: the supplement of paper PMC12338614
